Measurements published in patent US20110201109.

Target: Ronin (protein product of the cDNA clone from the human ES cell cDNA expression library) (UniProt Q96EK4)
UniProt Q96EK4, sequence (Q96EK4 whole entry): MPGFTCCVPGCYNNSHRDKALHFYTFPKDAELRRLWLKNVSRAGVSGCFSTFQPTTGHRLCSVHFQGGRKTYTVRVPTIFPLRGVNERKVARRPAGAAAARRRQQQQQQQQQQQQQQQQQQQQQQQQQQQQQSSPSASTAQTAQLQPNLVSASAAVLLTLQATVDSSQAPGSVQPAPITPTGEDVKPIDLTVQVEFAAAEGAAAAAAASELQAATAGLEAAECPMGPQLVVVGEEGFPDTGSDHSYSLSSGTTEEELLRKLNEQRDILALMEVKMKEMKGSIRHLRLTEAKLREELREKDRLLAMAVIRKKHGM

Caspase-3 (as used in the in vitro transcription/translation Caspase-3 cleavage assay)
in vitro transcription/translation Caspase-3 cleavage assay: proved to be an authentic target of Caspase-3 in further analyses
